# Data from the DeepSol protein solubility set.
# Test: soluble on expression in E. coli; label from the status in PepcDB or PDB records
row,Sequence,soluble on expression in E. coli
1,GLIDSHVHPVVGDYTPRQQQLHWIDSTLHGGVTTLISAGEVHMPGRPKDIVGLKAMAIAAQRWYENFRPSGVKVMAGAPVIEHGMVEQDFKELADAGVKLLGEVGLGTVKDGKTARQMVDWARKYGIQSTIHTGGPSIPGSGLIDADMVLETGTDVIGHINGGHSALPDDQIMCLCESCTAGLEIVHNGNERAALLTLNTARELKQMDRIILGTDGPAGSGVQPLGILRMVAMLSALGNVPAEIAFCFANGNTARQRELDTGLLERGYAADFVLMDQAQHAPGKTILESVQLGNLPGVGMTVIDGVVCSERSRNTPPATRLPRIVS,not soluble
2,MISTRFLRPSVSIFGFGIKSSMSSRAPPKALLQDMVVPPRQLFGPGPSNMADSIAETQSRNLLGHLHPEFVQIMADVRLGLQYVFKTDNKYTFAVSGTGHSGMECAMVNLLEPGDKFLVVEIGLWGQRAADLANRMGIEVKKITAPQGQAVPVEDIRKAIADYKPNLVFVCQGDSSTGVAQPLETIGDACREHGALFLVDTVASLGGTPFAADDLKVDCVYSATQKVLNAPPGLAPISFSDRAMEKIRNRKQRVASFYFDAIELGNYWGCDGELKRYHHTAPISTVYALRAALSAIAKEGIDESIQRHKDNAQVLYATLKKHGLEPFVVDEKLRLPCLTTVKVPEGVDWKDVAGKMMTNGTEIAGGLGATVGKIWRIGTFGINSNSTKIENVVELLSKSIGEKSK,not soluble
3,MDPFGILYTDLYQLTMGQVYFRMGLHEKEALFEAFYRRNPDYGAHQAGYTVFAGLDPLLSWMEEARFGEEEIAALRNLKSRSGKPLFAEDYLRYLKAMGGFSGLTLRALPEGRVAHPQVPLVSVEGPLLQAQLLETALLNRLNYETLIATKASRVREAAGEAVVLEFGLRRAPAKGGESATRASLIGGANRSSAVSLSHLLGLPASGTHAHSLVQAFMALGYSEEDAFRAFAEVFPDDAILLLDTVDTLHSGLPHAIRVFEELRRKGHRPVGVRIDSGDLAHLAIQVARELDRAGFPEVLIVLSGDLDELVIWQIKSQILEEAPRYGVDPDRLLKRLVYGVGTRMVVSWGAPALGGVYKLVAVRENGTWAPAMKVSNSLEKVLNPGHKRVYRVYDERGLATADLLALAEEEVREDAPLTLRHPTDPTKRRTLRPGSFRLEPLLEEVYRGRRLFPPLPLEELRKRRDRDVALLDPGVRRLVNPHVYHVSLTERLFALKEELVRRLEG,soluble
4,MGSDKIHHHHHHMKIAFVSTRGIPNNYGGFEQFAEYISVGMAQRGHEVVVYSPKFHPYQESTYKGVRIKHIYSPETWMGSSVGSFFYDFASLRDALKKEDFDIIYEAGYTSIIPAYIWFNVKKRKRPIFTTNMDGLENKRSKFSPMVRRFLDWEEKMAVKYSHYLIADNMGIHDYYKEKYGKESKFLAYGADIHDDFKAEYLEEFGLKSEEYYILIARLEPENNIVMAIEGYLHSKENGRRPLIVVGKTNTPHGKELVEKYGNERNVEFVGGIYDFKKLDSVRHFSKAYFHGHSVGGTNPSLLEAMAAGCFIFAHDNIFNRAVLKENAFYYPSADKVTEYLNRIDTIAEGSKIQYTARNIEVIRNEYSWESLIDKHEKYFYWLLSQKQ,not soluble
5,MTEVEKSRSGRIVKRKVFADFQQLDDDLKSITTEELRESASESKKLRLGPTRRSCRNIPTNYEELKAKTDAGIIPETVYYRASNNSMYIPSITADMLKNDGNDLTVQTRSDKYFKYNRVRQSTKIDYAEPEKVYDIIYAVRKRPILWDQRLICHRNSNLSRRAWDQLDLELGIDEEYPLARRKQIWKSKRDYFVSAVNAANLRKWIYADALEFYRPMINFRTTFCLRPTVAQPSQSVHDKLVLADKNIQCTPGDKKNVLTFLLKSLYDTGMSSPEMMAEHGLEILKIFKKNAESSNLKLN,not soluble
6,MGSDKIHHHHHHMKRIDLNGFWSVRDNEGRFSFEGTVPGVVQADLVRKGLLPHPYVGMNEDLFKEIEDREWIYEREFEFKEDVKEGERVDLVFEGVDTLSDVYLNGVYLGSTEDMFIEYRFDVTNVLKEKNHLKVYIKSPIRVPKTLEQNYGVLGGPEDPIRGYIRKAQYSYGWDWGARIVTSGIWKPVYLEVYRARLQDSTAYLLELEGKDALVRVNGFVHGEGNLIVEVYVNGEKIGEFPVLEKNGEKLFDGVFHLKDVKLWYPWNVGKPYLYDFVFVLKDLNGEIYREEKKIGLRRVRIVQEPDEEGKTFIFEINGEKVFAKGANWIPSENILTWLKEEDYEKLVKMARSANMNMLRVWGGGIYEREIFYRLCDELGIMVWQDFMYACLEYPDHLPWFRKLANEEARKIVRKLRYHPSIVLWCGNNENNWGFDEWGNMARKVDGINLGNRLYLFDFPEICAEEDPSTPYWPSSPYGGEKANSEKEGDRHVWYVWSGWMNYENYEKDTGRFISEFGFQGAPHPETIEFFSKPEEREIFHPVMLKHNKQVEGQERLIRFIFGNFGKCKDFDSFVYLSQLNQAEAIKFGVEHWRSRKYKTAGALFWQFNDSWPVFSWSAVDYFKRPKALYYYARRFFAEVLPVLKKRDNKIELLVVSDLRETKEVSLRLAAYEKKGEKVFEKTYRTVLPADGVSLVDRVELPDDLFFFVEAEVDGVKYRNYRVFRKWRDLELPDPEISLEDMGELIELTAQRPAFGVKILSDEVPEDDFLFLEPGRSITLKKPDGVRGVKSLFDYLR,not soluble
7,MGSDKIHHHHHHMTKKTGFFKRLKALELPQKQLFAIALCQRMLPNYQLFSEVCEFGDPAVLNTVLELLWQSQYDNKLKFNIDVHLQRLEDNTPDPVDFEAYGVYPAMDAVVALSTLLSAIQDKNEEDIINISKLSSSTVANYIEAISDVDLVDDALDDFVFAHEVMEEEKELQNSLLEIIEENPKITAELVKGLRKDIIEAGVSNIGISIA,not soluble
8,PDEKIVRIHSSSGTTGSPVIIPYTQKDVDVWSEMMMRCYQMAGVTNNDRVHITPGYGLWTAGIGFQLGAERLGAMAIPMGPGNTEKQLQMMVDLKSTVLTSTSSYALLLAEEIRKKGIQDKIHLKIGVIGSERWSEKMRNRIESELGIKSFDIYGLTEIYGPGIALDCEYHEGMHYW,not soluble
9,GPLGSMTGPSVHDRALGAFLGLAVGDALGATVEFMTKGEIAQQYGIHRKMTGGGWLRLKPGQITDDTEMSLALGRSLAAKGTLDVADICEEFALWLKSRPVDVGNTCRRGIRRYMHEGTTTAPYSEGDAGNGAAMRCLPAALATLGHPADLEPWVLAQARITHNHPLSDAACLTLGRMVHHLIGGRGMKACREEANRLVHQHRDFHFEPYKGQSSAYIVDTMQTVLHYYFVTDTFKSCLIQTVNQGGDADTTGALAGMLAGATYGVDDIPSGWLSKLDMKVEREIRRQVDALLALAGLD,soluble
10,MEETKRLQKVYQLFAESTTERIPTDRLVDVLRFAGYIISESYIGELLSSIPGETLDFGQLVDVCERIREREITREELQNSFRRLDVDNTSYIDAGRLVQILSSGENRFSDEEIEELLNILNPDGDGKICYDLVIKNIFGY,not soluble
11,MTENNRLSVKLPGLDLKNPIIPASGCFGFGEEYAKYYDLNKLGSIMVKATTLHPRFGNPTPRVAETASGMLNAIGLQNPGLEVIMTEKLPWLNENFPELPIIANVAGSEEADYVAVCAKIGDAANVKAIELNISCPNVKHGGQAFGTDPEVAAALVKACKAVSKVPLYVKLSPNVTDIVPIAKAVEAAGADGLTMINTLMGVRFDLKTRQPILANITGGLSGPAIKPVALKLIHQVAQDVDIPIIGMGGVANAQDVLEMYMAGASAVAVGTANFADPFVCPKIIDKLPELMDQYRIESLESLIQEVKEGKK,soluble
12,MSLSQPRYLSESKVAIKQSSDINGSNLNVGLLLGTGNPSSAEDALYLKEYISSPDMLGVLDKQLNFRQAFGQSGWDFFYHLSEGATREQFLNYYRDRISVVYDDKTGLLTLGTQGFSPEFAEAFNQAVLKESEKFINEISHRIAREQLQFAEDEMQAARVRLNRSKTELLTYQNSNNVLDPEAQALAATSLVNTLVSQRIQMEAELRNLLTYLRDDAPQVISAQNALKSLSTQIDNEKNKITAPDGHKLNRMAVDFEEIKAKVQFDGEIYKLTLTSIEKTRVDAARKLKVLSVISSPQLPEESAFPNREGHHHHHH,soluble
13,MLPANEIKGVLAFLREAERLKSVIRSGYTSTGRPESTAEHTWRLCLMAMLLADGLGDIDVARLLKICIVHDLGEALHGDVPAVAQVEGDDRAARERADIETLTQSLDDKRRAELLGLWHDYETGASPEGRLAKGLDKLETILQHTQGLNPADFDYAFNLDYGARHTAVHPLVSAIRAELDNDTRARMALQQASGAPH,not soluble
14,MYIILVYDIGEKRVGKMLKLCRKYLNWIQNSVFEGEISEVKLLELKSRAAGIMEKEEDSLIIFSSRQERWLEKEIIGKERSATDIFL,not soluble
